In the supplement of paper PMC5998384:

Experiments:
HeLa Kyoto [1] = test: solubility in G1/S (NP-40 vs SDS abundance) (log2 ratio); higher = more soluble; details: cell cycle stage: G1/S
HeLa Kyoto [2] = test: melting temperature (median over replicates), in situ; higher = more thermally stable
HeLa Kyoto [3] = test: solubility change mitosis vs G1/S (difference of NP-40 vs SDS log2 ratios) (log2 ratio difference); higher = more soluble in mitosis
HeLa Kyoto [4] = test: thermal stability score vs G1/S (z-score of summed log2 fold changes over temperatures); higher = more thermally stable than in G1/S
[5] = cell cycle stage: early G1 (4.5 h after nocodazole release)
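Wherever melting temperature (median over replicates), in situ is given: HeLa Kyoto cells synchronized by double thymidine or nocodazole block, proteins quantified by TMT10plex mass spectrometry, three independent biological replicates.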
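Wherever solubility change mitosis vs G1/S (difference of NP-40 vs SDS log2 ratios) is given: synchronized HeLa Kyoto cells (double thymidine block for G1/S, nocodazole release for mitosis), protein amounts in NP-40 versus SDS lysates quantified by mass spectrometry, three biological replicates.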
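Wherever solubility in G1/S (NP-40 vs SDS abundance) is given: HeLa Kyoto cells arrested at G1/S by double thymidine block, proteins quantified by TMT10plex mass spectrometry in mild NP-40 versus SDS extracts, three biological replicates.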
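Wherever thermal stability score vs G1/S (z-score of summed log2 fold changes over temperatures) is given: synchronized HeLa Kyoto cells, proteins quantified by TMT10plex mass spectrometry, three biological replicates, mitosis taken 0.5 h after nocodazole release, G1/S directly after double thymidine block.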

Substance | solubility in G1/S (log2) (HeLa Kyoto [1]) | melting temperature (HeLa Kyoto [2]; cell cycle stage: G1/S) [°C] | melting temperature (HeLa Kyoto [2]; cell cycle stage: mitosis) [°C] | solubility change mitosis (log2) (HeLa Kyoto [3]) | thermal stability score (HeLa Kyoto [4]; [5]) | thermal stability score (HeLa Kyoto [4]; cell cycle stage: mitosis)
MAAAAAAGPSPGSGPGDSPEGPEGEAPERRRKAHGMLKLYYGLSEGEAAGRPAGPDPLDPTDLNGAHFDPEVYLDKLRRECPLAQLMDSETDMVRQIRALDSDMQTLVYENYNKFISATDTIRKMKNDFRKMEDEMDRLATNMAVITDFSARISATLQDRHERITKLAGVHALLRKLQFLFELPSRLTKCVELGAYGQAVRYQGRAQAVLQQYQHLPSFRAIQDDCQVITARLAQQLRQRFREGGSGAPEQAECVELLLALGEPAEELCEEFLAHARGRLEKELRNLEAELGPSPPAPDVLEFTDHGGSGFVGGLCQVAAAYQELFAAQGPAGAEKLAAFARQLGSRYFALVERRLAQEQGGGDNSLLVRALDRFHRRLRAPGALLAAAGLADAATEIVERVARERLGHHLQGLRAAFLGCLTDVRQALAAPRVAGKEGPGLAELLANVASSILSHIKASLAAVHLFTAKEVSFSNKPYFRGEFCSQGVREGLIVGFVHSMCQTAQSFCDSPGEKGGATPPALLLLLSRLCLDYETATISYILTLTDEQFLVQDQFPVTPVSTLCAEARETARRLLTHYVKVQGLVISQMLRKSVETRDWLSTLEPRNVRAVMKRVVEDTTAIDVQVGLLYEEGVRKAQSSDSSKRTFSVYSSSRQQGRYAPSYTPSAPMDTNLLSNIQKLFSERIDVFSPVEFNKVSVLTGIIKISLKTLLECVRLRTFGRFGLQQVQVDCHFLQLYLWRFVADEELVHLLLDEVVASAALRCPDPVPMEPSVVEVICERG [VPS51] | 0.0503 | 49.3 | 49.3 | -0.137 | 0.245 | 0.774
PSIP1 | 0.071 | 50.8 | 52.2 | 0.557 | -1.03 | -2.11
MAEGEDVGWWRSWLQQSYQAVKEKSSEALEFMKRDLTEFTQVVQHDTACTIAATASVVKEKLATEGSSGATEKMKKGLSDFLGVISDTFAPSPDKTIDCDVITLMGTPSGTAEPYDGTKARLYSLQSDPATYCNEPDGPPELFDAWLSQFCLEEKKGEISELLVGSPSIRALYTKMVPAAVSHSEFWHRYFYKVHQLEQEQARRDALKQRAEQSISEEPGWEEEEEELMGISPISPKEAKVPVAKISTFPEGEPGPQSPCEENLVTSVEPPAEVTPSESSESISLVTQIANPATAPEARVLPKDLSQKLLEASLEEQGLAVDVGETGPSPPIHSKPLTPAGHTGGPEPRPPARVETLREEAPTDLRVFELNSDSGKSTPSNNGKKGSSTDISEDWEKDFDLDMTEEEVQMALSKVDASGELEDVEWEDWE [BSDC1] | 0.378 | 53.3 | 53.5 | -0.201 | -1.16 | -2.92
MAMRQTPLTCSGHTRPVVDLAFSGITPYGYFLISACKDGKPMLRQGDTGDWIGTFLGHKGAVWGATLNKDATKAATAAADFTAKVWDAVSGDELMTLAHKHIVKTVDFTQDSNYLLTGGQDKLLRIYDLNKPEAEPKEISGHTSGIKKALWCSEDKQILSADDKTVRLWDHATMTEVKSLNFNMSVSSMEYIPEGEILVITYGRSIAFHSAVSLDPIKSFEAPATINSASLHPEKEFLVAGGEDFKLYKYDYNSGEELESYKGHFGPIHCVRFSPDGELYASGSEDGTLRLWQTVVGKTYGLWKCVLPEEDSGELAKPKIGFPETTEEELEEIASENSDCIFPSAPDVKA [STRAP] | 0.14 | 52.3 | 52.2 | -0.127 | -1.2 | -3.1
MERKVLALQARKKRTKAKKDKAQRKSETQHRGSAPHSESDLPEQEEEILGSDDDEQEDPNDYCKGGYHLVKIGDLFNGRYHVIRKLGWGHFSTVWLSWDIQGKKFVAMKVVKSAEHYTETALDEIRLLKSVRNSDPNDPNREMVVQLLDDFKISGVNGTHICMVFEVLGHHLLKWIIKSNYQGLPLPCVKKIIQQVLQGLDYLHTKCRIIHTDIKPENILLSVNEQYIRRLAAEATEWQRSGAPPPSGSAVSTAPQPKPADKMSKNKKKKLKKKQKRQAELLEKRMQEIEEMEKESGPGQKRPNKQEESESPVERPLKENPPNKMTQEKLEESSTIGQDQTLMERDTEGGAAEINCNGVIEVINYTQNSNNETLRHKEDLHNANDCDVQNLNQESSFLSSQNGDSSTSQETDSCTPITSEVSDTMVCQSSSTVGQSFSEQHISQLQESIRAEIPCEDEQEQEHNGPLDNKGKSTAGNFLVNPLEPKNAEKLKVKIADLGNACWVHKHFTEDIQTRQYRSLEVLIGSGYNTPADIWSTACMAFELATGDYLFEPHSGEEYTRDEDHIALIIELLGKVPRKLIVAGKYSKEFFTKKGDLKHITKLKPWGLFEVLVEKYEWSQEEAAGFTDFLLPMLELIPEKRATAAECLRHPWLNS [SRPK1] | -0.411 | 51.7 | 51.3 | 0.114 | 0.23 | -0.71
MFQFHAGSWESWCCCCLIPADRPWDRGQHWQLEMADTRSVHETRFEAAVKVIQSLPKNGSFQPTNEMMLKFYSFYKQATEGPCKLSRPGFWDPIGRYKWDAWSSLGDMTKEEAMIAYVEEMKKIIETMPMTEKVEELLRVIGPFYEIVEDKKSGRSSDITSVRLEKISKCLEDLGNVLTSTPNAKTVNGKAESSDSGAESEEEEAQEEVKGAEQSDNDKKMMKKSADHKNLEVIVTNGYDKDGFVQDIQNDIHASSSLNGRSTEEVKPIDENLGQTGKSAVCIHQDINDDHVEDVTGIQHLTSDSDSEVYCDSMEQFGQEESLDSFTSNNGPFQYYLGGHSSQPMENSGFREDIQVPPGNGNIGNMQVVAVEGKGEVKHGGEDGRNNSGAPHREKRGGETDEFSNVRRGRGHRMQHLSEGTKGRQVGSGGDGERWGSDRGSRGSLNEQIALVLMRLQEDMQNVLQRLQKLETLTALQAKSSTSTLQTAPQPTSQRPSWWPFEMSPGVLTFAIIWPFIAQWLVYLYYQRRRRKLN [ACBD5] | 0.0763 | 47.3 | 49.4 | -0.129 | 2.16 | 3.53
